Data reported in article PMC6641176 (ACS Omega, 2017).

Tests used:
[1] = molecular target: the molecule itself; assay: SDS-PAGE and western blot
SEC = molecular target: the molecule itself; assay: SEC

B1: AqpZ-C20S (Escherichia coli aquaporin Z, C20S mutant) (natural protein)
chain: MFRKLAAECFGTFWLVFGGSGSAVLAAGFPELGIGFAGVALAFGLTVLTMAFAVGHISGGHFNPAVTIGLWAGGRFPAKEVVGYVIAQVVGGIVAAALLYLIASGKTGFDAAASGFASNGYGEHSPGGYSMLSALVVELVLSAGFLLVIHGATDKFAPAGFAPIAIGLALTLIHLISIPVTNTSVNPARSTAVAIFQGGWALEQLWFFWVVPIVGGIIGGLIYRTLLEKRD
stoichiometry N [1]: 4

B2: AqpZ-G144F (in the AqpZ-C20S background) (natural protein, Escherichia coli)
chain: MFRKLAAECFGTFWLVFGGSGSAVLAAGFPELGIGFAGVALAFGLTVLTMAFAVGHISGGHFNPAVTIGLWAGGRFPAKEVVGYVIAQVVGGIVAAALLYLIASGKTGFDAAASGFASNGYGEHSPGGYSMLSALVVELVLSAFFLLVIHGATDKFAPAGFAPIAIGLALTLIHLISIPVTNTSVNPARSTAVAIFQGGWALEQLWFFWVVPIVGGIIGGLIYRTLLEKRD
stoichiometry N (SEC): 4

B3: AqpZ-I176G (in the AqpZ-C20S background) (natural protein, Escherichia coli)
chain: MFRKLAAECFGTFWLVFGGSGSAVLAAGFPELGIGFAGVALAFGLTVLTMAFAVGHISGGHFNPAVTIGLWAGGRFPAKEVVGYVIAQVVGGIVAAALLYLIASGKTGFDAAASGFASNGYGEHSPGGYSMLSALVVELVLSAGFLLVIHGATDKFAPAGFAPIAIGLALTLIHLGSIPVTNTSVNPARSTAVAIFQGGWALEQLWFFWVVPIVGGIIGGLIYRTLLEKRD
stoichiometry N (SEC): 4
